For the assay, the target named is MHC class II (HLA-DR1) on human LG-2 cells (human (endogenous in LG-2)). The assay is described as follows: radioligand binding.

SMEZ-2, recombinant (natural protein) yielded a KD, high affinity site of 0.025 µM and a KD, low affinity site of 1 µM.
